Measurements: article PMC6450660

Biological target: PI3KC3 complex II (PI3KC3-C2): VPS34, VPS15, BECN1, UVRAG (human) (UniProt Q8NEB9)
Sequence (Q8NEB9 whole entry, chain 1 of 4): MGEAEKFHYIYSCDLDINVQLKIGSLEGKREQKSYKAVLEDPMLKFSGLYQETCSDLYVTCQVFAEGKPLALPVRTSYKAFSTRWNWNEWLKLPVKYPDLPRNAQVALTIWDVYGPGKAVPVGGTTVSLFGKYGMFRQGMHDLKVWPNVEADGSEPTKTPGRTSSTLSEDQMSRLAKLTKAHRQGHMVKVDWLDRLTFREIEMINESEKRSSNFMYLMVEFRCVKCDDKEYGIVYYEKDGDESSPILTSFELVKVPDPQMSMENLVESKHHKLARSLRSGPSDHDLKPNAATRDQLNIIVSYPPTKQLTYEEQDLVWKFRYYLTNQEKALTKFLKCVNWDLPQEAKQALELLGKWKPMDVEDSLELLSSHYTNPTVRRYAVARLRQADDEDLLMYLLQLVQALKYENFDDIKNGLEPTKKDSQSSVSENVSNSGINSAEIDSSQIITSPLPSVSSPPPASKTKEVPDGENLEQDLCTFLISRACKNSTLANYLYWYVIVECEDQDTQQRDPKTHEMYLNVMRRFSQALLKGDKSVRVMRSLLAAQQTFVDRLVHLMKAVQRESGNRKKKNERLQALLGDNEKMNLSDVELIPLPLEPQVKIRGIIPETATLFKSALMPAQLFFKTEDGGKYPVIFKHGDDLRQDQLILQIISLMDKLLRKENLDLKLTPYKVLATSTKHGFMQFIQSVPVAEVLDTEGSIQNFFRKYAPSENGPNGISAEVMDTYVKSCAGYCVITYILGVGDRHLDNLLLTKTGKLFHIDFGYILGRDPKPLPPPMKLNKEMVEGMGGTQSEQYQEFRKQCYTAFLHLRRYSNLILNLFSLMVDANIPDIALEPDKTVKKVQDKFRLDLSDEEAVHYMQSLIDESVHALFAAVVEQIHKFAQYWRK
Sequence (Q99570 whole entry, chain 2 of 4, further chain): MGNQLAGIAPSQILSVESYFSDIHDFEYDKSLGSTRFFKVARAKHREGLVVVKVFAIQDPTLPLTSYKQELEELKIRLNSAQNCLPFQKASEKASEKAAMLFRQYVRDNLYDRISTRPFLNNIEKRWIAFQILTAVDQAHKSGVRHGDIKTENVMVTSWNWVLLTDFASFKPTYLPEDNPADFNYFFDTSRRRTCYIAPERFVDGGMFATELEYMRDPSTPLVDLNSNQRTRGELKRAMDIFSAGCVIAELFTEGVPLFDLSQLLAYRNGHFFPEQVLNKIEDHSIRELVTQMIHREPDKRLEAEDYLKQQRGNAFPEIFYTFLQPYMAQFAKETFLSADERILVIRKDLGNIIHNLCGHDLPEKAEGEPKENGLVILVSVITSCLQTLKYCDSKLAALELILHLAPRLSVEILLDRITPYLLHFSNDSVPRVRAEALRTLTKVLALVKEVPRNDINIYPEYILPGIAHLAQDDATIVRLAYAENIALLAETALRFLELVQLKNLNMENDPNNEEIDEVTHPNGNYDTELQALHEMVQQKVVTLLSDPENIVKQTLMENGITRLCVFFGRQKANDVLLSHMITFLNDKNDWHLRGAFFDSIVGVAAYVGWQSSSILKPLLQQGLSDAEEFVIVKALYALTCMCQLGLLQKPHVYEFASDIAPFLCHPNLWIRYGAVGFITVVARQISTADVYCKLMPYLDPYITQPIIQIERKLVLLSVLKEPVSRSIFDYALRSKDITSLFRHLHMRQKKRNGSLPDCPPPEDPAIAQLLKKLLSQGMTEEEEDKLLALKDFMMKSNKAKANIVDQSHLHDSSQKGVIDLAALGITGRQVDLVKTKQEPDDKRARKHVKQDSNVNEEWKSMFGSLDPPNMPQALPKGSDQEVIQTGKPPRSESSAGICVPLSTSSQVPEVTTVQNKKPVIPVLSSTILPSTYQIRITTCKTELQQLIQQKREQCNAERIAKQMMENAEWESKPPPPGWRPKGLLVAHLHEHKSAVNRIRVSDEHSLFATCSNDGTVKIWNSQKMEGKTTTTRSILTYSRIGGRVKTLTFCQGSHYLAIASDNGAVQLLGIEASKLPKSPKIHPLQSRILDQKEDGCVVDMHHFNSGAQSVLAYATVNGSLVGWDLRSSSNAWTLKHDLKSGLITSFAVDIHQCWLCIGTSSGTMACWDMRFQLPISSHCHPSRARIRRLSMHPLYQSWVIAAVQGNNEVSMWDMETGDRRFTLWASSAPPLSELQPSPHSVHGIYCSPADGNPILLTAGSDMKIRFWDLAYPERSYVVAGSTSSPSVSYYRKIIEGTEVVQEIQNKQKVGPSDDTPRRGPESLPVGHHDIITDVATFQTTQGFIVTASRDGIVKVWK
Sequence (Q14457 whole entry, chain 3 of 4, further chain): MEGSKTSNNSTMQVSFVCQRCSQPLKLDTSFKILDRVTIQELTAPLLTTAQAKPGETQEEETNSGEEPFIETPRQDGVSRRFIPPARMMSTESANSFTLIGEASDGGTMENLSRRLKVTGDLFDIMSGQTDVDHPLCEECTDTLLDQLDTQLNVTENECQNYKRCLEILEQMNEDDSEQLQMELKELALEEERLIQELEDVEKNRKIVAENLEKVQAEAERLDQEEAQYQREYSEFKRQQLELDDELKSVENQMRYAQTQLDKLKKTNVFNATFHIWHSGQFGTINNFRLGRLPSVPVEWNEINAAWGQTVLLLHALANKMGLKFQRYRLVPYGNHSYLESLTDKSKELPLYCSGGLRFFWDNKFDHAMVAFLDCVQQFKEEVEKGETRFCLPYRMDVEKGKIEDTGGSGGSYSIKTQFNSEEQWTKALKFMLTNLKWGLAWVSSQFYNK
Sequence (Q9P2Y5 whole entry, chain 4 of 4, further chain): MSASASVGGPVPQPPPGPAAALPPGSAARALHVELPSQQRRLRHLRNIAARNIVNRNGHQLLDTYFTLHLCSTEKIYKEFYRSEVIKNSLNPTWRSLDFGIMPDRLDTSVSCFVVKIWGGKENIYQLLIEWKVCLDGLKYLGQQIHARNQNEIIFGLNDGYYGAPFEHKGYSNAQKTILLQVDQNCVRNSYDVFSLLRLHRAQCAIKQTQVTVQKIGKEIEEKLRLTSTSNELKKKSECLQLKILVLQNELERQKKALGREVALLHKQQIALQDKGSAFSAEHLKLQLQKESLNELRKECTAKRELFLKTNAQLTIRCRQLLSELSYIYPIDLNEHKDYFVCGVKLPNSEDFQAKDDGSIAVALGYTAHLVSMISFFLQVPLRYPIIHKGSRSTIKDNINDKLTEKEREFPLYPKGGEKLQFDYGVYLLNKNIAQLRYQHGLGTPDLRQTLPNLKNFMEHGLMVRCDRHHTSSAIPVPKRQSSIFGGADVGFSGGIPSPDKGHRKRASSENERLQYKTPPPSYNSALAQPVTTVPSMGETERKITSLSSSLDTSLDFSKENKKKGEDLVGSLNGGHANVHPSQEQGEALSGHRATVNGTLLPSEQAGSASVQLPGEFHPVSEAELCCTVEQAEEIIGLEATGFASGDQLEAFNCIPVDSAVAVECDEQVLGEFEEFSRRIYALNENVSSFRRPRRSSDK

PI3KC3-C2 lipid kinase activity on SUVs (ADP-Glo), complexes at 12.5 nM	Substance
2 fold	MBP tagged Rubicon MR (middle region) (from UniProt Q92622 1-972) (domain or fragment)
2 fold	MBP tagged Rubicon PIKBD (PI3KC3-C2 binding domain) (from UniProt Q92622 1-972) (domain or fragment)
